These are literature values, as cited in publication PMC3334866.

The target of this series is Vinculin D1 (UniProt P18206).

pKd: −log10 of the molar value.

Sequence of UniProt P18206 (P18206 1-258): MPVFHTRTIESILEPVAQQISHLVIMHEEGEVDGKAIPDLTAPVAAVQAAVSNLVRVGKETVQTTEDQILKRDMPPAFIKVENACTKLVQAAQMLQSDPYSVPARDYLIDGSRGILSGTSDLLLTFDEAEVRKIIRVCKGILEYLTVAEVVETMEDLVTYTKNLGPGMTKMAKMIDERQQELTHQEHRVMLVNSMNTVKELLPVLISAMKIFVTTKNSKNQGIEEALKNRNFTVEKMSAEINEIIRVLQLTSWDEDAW

One may read the pKd as the negative decadic logarithm of the Kd, by convention in mol/L. Regarding IpaA peptide (from UniProt P18010), the pKd is above 9.00.
